Measured values reported in patent publication US20100196390A1 (RINAT NEUROSCIENCE, published 2010).

Target: TrkB (Homo sapiens (Human), UniProt Q16620 32-430)
Test: koff of Fab at 25 C; T1/2=Log2/koff
Procedure, shortened: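 Monovalent Fab fragments were tested at 25° C by surface plasmon resonance on a Biacore instrument, against TrkB extracellular-domain monomer amine-coupled to the chip at low capacity. Fabs were injected low to high as a 3-fold serial dilution from 100 nM for 84 sec, with a 10 minute dissociation after the top sample. The dissociation half-life was calculated from koff, which was fitted to a Langmuir binding model in BIAevaluation. The formula used was T1/2 = Log 2/koff.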

Chain of TrkB (Q16620 32-430 limits assumed): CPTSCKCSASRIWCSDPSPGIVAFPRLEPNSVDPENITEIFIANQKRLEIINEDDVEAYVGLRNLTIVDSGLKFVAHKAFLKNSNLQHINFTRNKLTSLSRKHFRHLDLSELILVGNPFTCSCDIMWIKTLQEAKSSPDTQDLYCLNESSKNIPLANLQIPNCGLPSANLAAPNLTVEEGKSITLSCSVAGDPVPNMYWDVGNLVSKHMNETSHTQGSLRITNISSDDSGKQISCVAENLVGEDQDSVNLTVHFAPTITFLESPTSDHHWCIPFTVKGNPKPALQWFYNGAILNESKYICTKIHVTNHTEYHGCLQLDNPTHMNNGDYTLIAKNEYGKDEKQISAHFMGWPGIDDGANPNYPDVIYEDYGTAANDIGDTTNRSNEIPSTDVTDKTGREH

| Binder | T1/2 [min] |
| --- | --- |
| 6-H12 (Fab, V domains shown, Fab) VH: QVQLVQSGAEVKKPGASVKVSCKASGYTFTNYVILWVRQAPGQGLEWMGYINPYNDGTKYNEKFKGRVTMTRDTSTSTVYMELSSLRSEDTAVYYCARLLKYRRFSYYAIDYWGQGTTVTVSS VL: DIQMTQSPSSLSASVGDRVTITCRASENVYSNLAWYQQKPGKAPKLLIYAASNLQSGVPSRFSGSGSGTDFTFTISSLQPEDIATYYCQHFWHSPFTFGQGTKLEIK | 1.54 |
| 7-B1 (Fab, V domains shown, Fab) VH: QVQLVQSGAEVKKPGASVKVSCKASGYTFTNYVILWVRQAPGQGLEWMGYINPYNDGTKYNEKFKGRVTMTRDTSTSTVYMELSSLRSEDTAVYYCARLLKYRRFRYYAIDYWGQGTTVTVSS VL: DIQMTQSPSSLSASVGDRVTITCRASENVYSNLAWYQQKPGKAPKLLIYAASNLQSGVPSRFSGSGSGTDFTFTISSLQPEDIATYYCQHFWYSPFKFGQGTKLEIK | 0.81 |
| 7-B8 (Fab, V domains shown, Fab) VH: QVQLVQSGAEVKKPGASVKVSCKASGYTFTNYVILWVRQAPGQGLEWMGYINPYNDGTKYNEKFKGRVTMTRDTSTSTVYMELSSLRSEDTAVYYCARLLKYRRFRYYAIDYWGQGTTVTVSS VL: DIQMTQSPSSLSASVGDRVTITCRASENVYSNLAWYQQKPGKAPKLLIYAASNLQSGVPSRFSGSGSGTDFTFTISSLQPEDIATYYCQHFWYSPCTFGQGTKLEIK | 1.18 |
| 7-B9 (Fab, V domains shown, Fab) VH: QVQLVQSGAEVKKPGASVKVSCKASGYTFTNYVILWVRQAPGQGLEWMGYINPYNDGTKYNEKFKGRVTMTRDTSTSTVYMELSSLRSEDTAVYYCARLLKYRRFSYYAIDVWGQGTTVTVSS VL: DIQMTQSPSSLSASVGDRVTITCRASENVYSNLAWYQQKPGKAPKLLIYAASNLQSGVPSRFSGSGSGTDFTFTISSLQPEDIATYYCQHFWYSPWTFGQGTKLEIK | 1.79 |
| 7-C11 (Fab, V domains shown, Fab) VH: QVQLVQSGAEVKKPGASVKVSCKASGYTFTNYVILWVRQAPGQGLEWMGYINPYNDGTKYNEKFKGRVTMTRDTSTSTVYMELSSLRSEDTAVYYCARLLKYRRFSYYAIDYWGQGTTVTVSS VL: DIQMTQSPSSLSASVGDRVTITCRASENVYSNLAWYQQKPGKAPKLLIYAASNLQSGVPSRFSGSGSGTDFTFTISSLQPEDIATYYCQHFKYSPFTFGQGTKLEIK | 1.07 |
| 7-D1 (Fab, V domains shown, Fab) VH: QVQLVQSGAEVKKPGASVKVSCKASGYTFTNYVILWVRQAPGQGLEWMGYINPYNDGTKYNEKFKGRVTMTRDTSTSTVYMELSSLRSEDTAVYYCARLLKYRRFSYYAIDVWGQGTTVTVSS VL: DIQMTQSPSSLSASVGDRVTITCRASENVYSNLAWYQQKPGKAPKLLIYAASNLQSGVPSRFSGSGSGTDFTFTISSLQPEDIATYYCQHFWYLPFTFGQGTKLEIK | 0.7 |
| 7-F1 (Fab, V domains shown, Fab) VH: QVQLVQSGAEVKKPGASVKVSCKASGYTFTNYVILWVRQAPGQGLEWMGYINPYNDGTKYNEKFKGRVTMTRDTSTSTVYMELSSLRSEDTAVYYCARLLKYRRFRYYAIDYWGQGTTVTVSS VL: DIQMTQSPSSLSASVGDRVTITCRASENVYSNLAWYQQKPGKAPKLLIYAASNLQSGVPSRFSGSGSGTDFTFTISSLQPEDIATYYCQNFWYSPFTFGQGTKLEIK | 0.54 |
| 8-B2 (Fab, V domains shown, Fab) VH: QVQLVQSGAEVKKPGASVKVSCKASGYTFTNYVILWVRQAPGQGLEWMGYINPYNDGTKYNEKFKGRVTMTRDTSTSTVYMELSSLRSEDTAVYYCARLLKYRRFRYYAIDYWGQGTTVTVSS VL: DIQMTQSPSSLSASVGDRVTITCRASENVYSNLAWYQQKPGKAPKLLIYAASNLQSGVPSRFSGSGSGTDFTFTISSLQPEDIATYYCQHFYYSPFTFGQGTKLEIK | 1.46 |
| 8-C8 (Fab, V domains shown, Fab) VH: QVQLVQSGAEVKKPGASVKVSCKASGYTFTNYVILWVRQAPGQGLEWMGYINPYNDGTKYNEKFKGRVTMTRDTSTSTVYMELSSLRSEDTAVYYCARLLKYRRFRYYAIDYWGQGTTVTVSS VL: DIQMTQSPSSLSASVGDRVTITCRASENVYSNLAWYQQKPGKAPKLLIYAASNLQSGVPSRFSGSGSGTDFTFTISSLQPEDIATYYCQHFWYSPFGFGQGTKLEIK | 1.78 |
| 8-D2 (Fab, V domains shown, Fab) VH: QVQLVQSGAEVKKPGASVKVSCKASGYTFTNYVILWVRQAPGQGLEWMGYINPYNDGTKYNEKFKGRVTMTRDTSTSTVYMELSSLRSEDTAVYYCARLLKYRRFSYYAADYWGQGTTVTVSS VL: DIQMTQSPSSLSASVGDRVTITCRASENVYSNLAWYQQKPGKAPKLLIYAASNLQSGVPSRFSGSGSGTDFTFTISSLQPEDIATYYCQNFWYSPFTFGQGTKLEIK | 1.81 |
| 8-G2 (Fab, V domains shown, Fab) VH: QVQLVQSGAEVKKPGASVKVSCKASGYTFTNYVILWVRQAPGQGLEWMGYINPYNDGTKYNEKFKGRVTMTRDTSTSTVYMELSSLRSEDTAVYYCARLLKYRRFRFYAIDYWGQGTTVTVSS VL: DIQMTQSPSSLSASVGDRVTITCRASENVYSNLAWYQQKPGKAPKLLIYAASNLQSGVPSRFSGSGSGTDFTFTISSLQPEDIATYYCQHFGYSPFIFGQGTKLEIK | 1.88 |
| 8-H7 (Fab, V domains shown, Fab) VH: QVQLVQSGAEVKKPGASVKVSCKASGYTFTNYVILWVRQAPGQGLEWMGYINPYNDGTKYNEKFKGRVTMTRDTSTSTVYMELSSLRSEDTAVYYCARLLKYRRFSFYAIDYWGQGTTVTVSS VL: DIQMTQSPSSLSASVGDRVTITCRASENVYSNLAWYQQKPGKAPKLLIYAASNLQSGVPSRFSGSGSGTDFTFTISSLQPEDIATYYCQHFVYSPFTFGQGTKLEIK | 1.18 |
| 9-D6 (Fab, V domains shown, Fab) VH: QVQLVQSGAEVKKPGASVKVSCKASGYTFTNYVILWVRQAPGQGLEWMGYINPYNDGTKYNEKFKGRVTMTRDTSTSTVYMELSSLRSEDTAVYYCARLLKYRRFSYYAIDVWGQGTTVTVSS VL: DIQMTQSPSSLSASVGDRVTITCRASENVYSNLAWYQQKPGKAPKLLIYAASNLQSGVPSRFSGSGSGTDFTFTISSLQPEDIATYYCQHFSYSPFTFGQGTKLEIK | 1.45 |
| 9-D9 (Fab, V domains shown, Fab) VH: QVQLVQSGAEVKKPGASVKVSCKASGYTFTNYVILWVRQAPGQGLEWMGYINPYNDGTKYNEKFKGRVTMTRDTSTSTVYMELSSLRSEDTAVYYCARLLKYRRFRYYAIDYWGQGTTVTVSS VL: DIQMTQSPSSLSASVGDRVTITCRASENVYSNLAWYQQKPGKAPKLLIYAASNLQSGVPSRFSGSGSGTDFTFTISSLQPEDIATYYCQHFWYSPFAFGQGTKLEIK | 1.54 |
| 9-D11 (Fab, V domains shown, Fab) VH: QVQLVQSGAEVKKPGASVKVSCKASGYTFTNYVILWVRQAPGQGLEWMGYINPYNDGTKYNEKFKGRVTMTRDTSTSTVYMELSSLRSEDTAVYYCARLLKYRRFKYYAIDYWGQGTTVTVSS VL: DIQMTQSPSSLSASVGDRVTITCRASENVYSNLAWYQQKPGKAPKLLIYAASNLQSGVPSRFSGSGSGTDFTFTISSLQPEDIATYYCQHFWMSPFTFGQGTKLEIK | 1.55 |
| 9-G8 (Fab, V domains shown, Fab) VH: QVQLVQSGAEVKKPGASVKVSCKASGYTFTNYVILWVRQAPGQGLEWMGYINPYNDGTKYNEKFKGRVTMTRDTSTSTVYMELSSLRSEDTAVYYCARLLKYRRFSYYAIDYWGQGTTVTVSS VL: DIQMTQSPSSLSASVGDRVTITCRASENVYSNLAWYQQKPGKAPKLLIYAASNLQSGVPSRFSGSGSGTDFTFTISSLQPEDIATYYCQHFWYSPFWFGQGTKLEIK | 1.13 |
| 10-A5 (Fab, V domains shown, Fab) VH: QVQLVQSGAEVKKPGASVKVSCKASGYTFTNYDIIWVRQAPGQGLEWMGYINPYNDGTKYNEKFKGRVTMTRDTSTSTVYMELSSLRSEDTAVYYCARLLKYRRFRYYAIDYWGQGTTVTVSS VL: DIQMTQSPSSLSASVGDRVTITCRASETVYSNLAWYQQKPGKAPKLLIYAASNLQSGVPSRFSGSGSGTDFTFTISSLQPEDIATYYCQHFWGSPFTFGQGTKLEIK | 1 |
| 10-A7 (Fab, V domains shown, Fab) VH: QVQLVQSGAEVKKPGASVKVSCKASGYTFTNYDIIWVRQAPGQGLEWMGYINPYNGRREYNEKFKGRVTMTRDTSTSTVYMELSSLRSEDTAVYYCARLLKYRRFRYYAIDYWGQGTTVTVSS VL: DIQMTQSPSSLSASVGDRVTITCRASENVYSHLAWYQQKPGKAPKLLIYAASNLQSGVPSRFSGSGSGTDFTFTISSLQPEDIATYYCQHFWYSPFTFGQGTKLEIK | 3 |
| 10-B9 (Fab, V domains shown, Fab) VH: QVQLVQSGAEVKKPGASVKVSCKASGYTFTNYDIIWVRQAPGQGLEWMGYINPYNDGRKENEKFKGRVTMTRDTSTSTVYMELSSLRSEDTAVYYCARLLKYRRFRYYAIDYWGQGTTVTVSS VL: DIQMTQSPSSLSASVGDRVTITCRASEPVYSNLAWYQQKPGKAPKLLIYAASNLQSGVPSRFSGSGSGTDFTFTISSLQPEDIATYYCQHFWGSPFTFGQGTKLEIK | 4 |
| 10-C7 (Fab, V domains shown, Fab) VH: QVQLVQSGAEVKKPGASVKVSCKASGYTFTNYDIIWVRQAPGQGLEWMGHINPYNGRREYNEKFKGRVTMTRDTSTSTVYMELSSLRSEDTAVYYCARLLKYRRFRYYAIDYWGQGTTVTVSS VL: DIQMTQSPSSLSASVGDRVTITCRASESVYSNLAWYQQKPGKAPKLLIYAASNLQSGVPSRFSGSGSGTDFTFTISSLQPEDIATYYCQHFVYSPFTFGQGTKLEIK | 4.1 |
| 10-C10 (Fab, V domains shown, Fab) VH: QVQLVQSGAEVKKPGASVKVSCKASGYTFTNYDIIWVRQAPGQGLEWMGYINPYNGRREYNEKFKGRVTMTRDTSTSTVYMELSSLRSEDTAVYYCARLLKYRRFRYYAIDYWGQGTTVTVSS VL: DIQMTQSPSSLSASVGDRVTITCRASENVYRNLAWYQQKPGKAPKLLIYAASNLQSGVPSRFSGSGSGTDFTFTISSLQPEDIATYYCQHFVYSPFTFGQGTKLEIK | 4.3 |
